# Measurements reported in patent US20230357422A1 (published 2023).
# B1: L-Yr-13&14-13 (Fc fusion)
# chain: QVQLQESGGGLVQAGDSLRLSCAASGSTFSITAMGWYRQPPGKQRELVASIITGDGDTNYADSVKGRFTISRDNAKNTMYLQMNSLKPEDTAVYYCYARTGYGSSWLMGHEYDYWGQGTQVTVSSTHTCPPCPAPEAAGGPSVFLFPPKPKDTLMISRTPEVTCVVVDVSHEDPEVKFNWYVDGVEVHNAKTKPREEQYNSTYRVVSVLTVLHQDWLNGKEYKCKVSNKALPAPIEKTISKAKGQPREPQVYTLPPSREEMTKNQVSLTCLVKGFYPSDIAVEWESNGQPENNYKTTPPVLDSDGSFFLYSKLTVDKSRWQQGNVFSCSVMHEALHNHYTQKSLSLSPG
# B2: L-Yr-13&14-11 (Fc fusion)
# chain: QVQLQESGGGLVQAGDSLRLSCAASGSTFSITAMGWYRQPPGKQRELVAAIIMSDGDTNYQDSVKGRFTISRDNAKNTMYLQMNSLKLEDTAVYYCYARTGYGSGRLMGHEYDYWGQGTQVTVSSTHTCPPCPAPEAAGGPSVFLFPPKPKDTLMISRTPEVTCVVVDVSHEDPEVKFNWYVDGVEVHNAKTKPREEQYNSTYRVVSVLTVLHQDWLNGKEYKCKVSNKALPAPIEKTISKAKGQPREPQVYTLPPSREEMTKNQVSLTCLVKGFYPSDIAVEWESNGQPENNYKTTPPVLDSDGSFFLYSKLTVDKSRWQQGNVFSCSVMHEALHNHYTQKSLSLSPG
# B3: L-Yr-13&14-07 (Fc fusion)
# chain: QVQLQESGGGLVQAGDSLRLSCAASGSTFGITAMGWYRQPPGKQRELVAAIIMSDGDTNYQDSVKGRFTISRDNAKNTMYLQMNSLKLEDTAVYYCYARTGYGSGRLMGHEYDYWGQGTQVTVSSTHTCPPCPAPEAAGGPSVFLFPPKPKDTLMISRTPEVTCVVVDVSHEDPEVKFNWYVDGVEVHNAKTKPREEQYNSTYRVVSVLTVLHQDWLNGKEYKCKVSNKALPAPIEKTISKAKGQPREPQVYTLPPSREEMTKNQVSLTCLVKGFYPSDIAVEWESNGQPENNYKTTPPVLDSDGSFFLYSKLTVDKSRWQQGNVFSCSVMHEALHNHYTQKSLSLSPG
# B4: L-Yr-13&14-10 (Fc fusion)
# chain: QVQLQESGGGLVQAGGSLRLSCAASGSTFSITAMGWYRQAPGQQRELVAAIASGDGATNYADFVKGRFTISRDNAKNTMFLQMNSLKPEDSAVYYCYARTGYGSSWLMGHEYDYWGQGTQVTVSSTHTCPPCPAPEAAGGPSVFLFPPKPKDTLMISRTPEVTCVVVDVSHEDPEVKFNWYVDGVEVHNAKTKPREEQYNSTYRVVSVLTVLHQDWLNGKEYKCKVSNKALPAPIEKTISKAKGQPREPQVYTLPPSREEMTKNQVSLTCLVKGFYPSDIAVEWESNGQPENNYKTTPPVLDSDGSFFLYSKLTVDKSRWQQGNVFSCSVMHEALHNHYTQKSLSLSPG
# B5: L-Yr-13&14-12 (Fc fusion)
# chain: QVQLQESGGGLVQAGDSLRLSCAASGSTFSITAMGWYRQPPGKQRELVAAIIMSDGDTNYQDSVKGRFTISRDNAKNTMYLQMNSLKPEDTAVYYCYARTGYGSGWLEGHEYDYWGQGTQVTVSSTHTCPPCPAPEAAGGPSVFLFPPKPKDTLMISRTPEVTCVVVDVSHEDPEVKFNWYVDGVEVHNAKTKPREEQYNSTYRVVSVLTVLHQDWLNGKEYKCKVSNKALPAPIEKTISKAKGQPREPQVYTLPPSREEMTKNQVSLTCLVKGFYPSDIAVEWESNGQPENNYKTTPPVLDSDGSFFLYSKLTVDKSRWQQGNVFSCSVMHEALHNHYTQKSLSLSPG
# B6: L-Yr-13&14-09 (Fc fusion)
# chain: QVQLQESGGGLVQAGGSLKLSCAASGSTFSISAMGWYRQAPGKQRELVAAIVIGDGDTNYADSVKGRFTISRDNAKNTMYLQMNSLKPEDTAVYYCYARTGYGSSWLMGHEYDYWGQGTQVTVSSTHTCPPCPAPEAAGGPSVFLFPPKPKDTLMISRTPEVTCVVVDVSHEDPEVKFNWYVDGVEVHNAKTKPREEQYNSTYRVVSVLTVLHQDWLNGKEYKCKVSNKALPAPIEKTISKAKGQPREPQVYTLPPSREEMTKNQVSLTCLVKGFYPSDIAVEWESNGQPENNYKTTPPVLDSDGSFFLYSKLTVDKSRWQQGNVFSCSVMHEALHNHYTQKSLSLSPG
# B7: L-Yr-13&14-02 (Fc fusion)
# chain: QVQLQESGGGLVQAGGSLRLSCAASGGTFSITAMGWYRQAPGQQRELVAAIASGDGATNYADFVKGRFTISRDNAKNTMFLQMNSLKPEDSAVYYCYARTGYGSSWPMGHEYDYWGQGTQVTVSSTHTCPPCPAPEAAGGPSVFLFPPKPKDTLMISRTPEVTCVVVDVSHEDPEVKFNWYVDGVEVHNAKTKPREEQYNSTYRVVSVLTVLHQDWLNGKEYKCKVSNKALPAPIEKTISKAKGQPREPQVYTLPPSREEMTKNQVSLTCLVKGFYPSDIAVEWESNGQPENNYKTTPPVLDSDGSFFLYSKLTVDKSRWQQGNVFSCSVMHEALHNHYTQKSLSLSPG
# B8: L-Yr-13&14-08 (Fc fusion)
# chain: QVQLQESGGGLVQPGGSLRLSCAASGSTFSISAMGWYRQPPGKQRELVALIIMSDGDTNYQDSVKGRFTISRDNANNTMYLQMNSLKLEDTAVYYCYARTGYGSGRLMGHEYDYWGQGTQVTVSSTHTCPPCPAPEAAGGPSVFLFPPKPKDTLMISRTPEVTCVVVDVSHEDPEVKFNWYVDGVEVHNAKTKPREEQYNSTYRVVSVLTVLHQDWLNGKEYKCKVSNKALPAPIEKTISKAKGQPREPQVYTLPPSREEMTKNQVSLTCLVKGFYPSDIAVEWESNGQPENNYKTTPPVLDSDGSFFLYSKLTVDKSRWQQGNVFSCSVMHEALHNHYTQKSLSLSPG
# B9: A-Ye-13 (Fc fusion)
# chain: EVQLQESGGGLVQAGGSLRLSCAASGFTFDDYAIGWFRQAPGKEREGVLCISSSGGSTYYADSVKGRFTISRDNAKNTVYLQMTNLKPEDTAVYLCGAPRDCSYYTGDDYWGQGTQVTVSSTHTCPPCPAPEAAGGPSVFLFPPKPKDTLMISRTPEVTCVVVDVSHEDPEVKFNWYVDGVEVHNAKTKPREEQYNSTYRVVSVLTVLHQDWLNGKEYKCKVSNKALPAPIEKTISKAKGQPREPQVYTLPPSREEMTKNQVSLTCLVKGFYPSDIAVEWESNGQPENNYKTTPPVLDSDGSFFLYSKLTVDKSRWQQGNVFSCSVMHEALHNHYTQKSLSLSPG
# B10: L-Yr-13&14-17 (Fc fusion)
# chain: QVQLQESGGGLVQAGGSLRLSCAASRSIFSSYVMAWYRQAPGKERELVALIRYGGSTDYADSVKGRFTISRDNSKNTLILQMNSLKPEDTAMYYCAASKSAYIFDDRDYWGQGTQVTVSSTHTCPPCPAPEAAGGPSVFLFPPKPKDTLMISRTPEVTCVVVDVSHEDPEVKFNWYVDGVEVHNAKTKPREEQYNSTYRVVSVLTVLHQDWLNGKEYKCKVSNKALPAPIEKTISKAKGQPREPQVYTLPPSREEMTKNQVSLTCLVKGFYPSDIAVEWESNGQPENNYKTTPPVLDSDGSFFLYSKLTVDKSRWQQGNVFSCSVMHEALHNHYTQKSLSLSPG
# B11: A-Ye-03 (Fc fusion)
# chain: QVQLQESGGGLVQAGGSLRLSCAASGFTLDYYAIGWFRQAPGKEREGVLCISSSGETTYYSDSVKGRFTISRDNAKNKVYLQMNSLKPEDTAVYYCGAELLGSGEGCYVWSRDGSYWGQGTQVTVSSTHTCPPCPAPEAAGGPSVFLFPPKPKDTLMISRTPEVTCVVVDVSHEDPEVKFNWYVDGVEVHNAKTKPREEQYNSTYRVVSVLTVLHQDWLNGKEYKCKVSNKALPAPIEKTISKAKGQPREPQVYTLPPSREEMTKNQVSLTCLVKGFYPSDIAVEWESNGQPENNYKTTPPVLDSDGSFFLYSKLTVDKSRWQQGNVFSCSVMHEALHNHYTQKSLSLSPG
# B12: A-Na-16 (Fc fusion)
# chain: QVQLVESGGGLVPPGESLRLSCAASGAIFRINTGAWYRQAPGKQRELVASLTTYGKTTYADFVKGRFTISRDDARNTVSLQMNSLKPEDTAIYYCHIGPEPRYGYWGQGTQVTVSSTHTCPPCPAPEAAGGPSVFLFPPKPKDTLMISRTPEVTCVVVDVSHEDPEVKFNWYVDGVEVHNAKTKPREEQYNSTYRVVSVLTVLHQDWLNGKEYKCKVSNKALPAPIEKTISKAKGQPREPQVYTLPPSREEMTKNQVSLTCLVKGFYPSDIAVEWESNGQPENNYKTTPPVLDSDGSFFLYSKLTVDKSRWQQGNVFSCSVMHEALHNHYTQKSLSLSPG
# B13: A-Na-19 (Fc fusion)
# chain: QVQLVESGGGLVPPGESLRLSCAASGAIFRINTGAWYRQAPGKQRELVASLTTYGKTTYADFVKGRFTISRDDAKNTVYLQMNSLKPEDTAIYYCHIGPEPRYGYWGQGTQVTVSSTHTCPPCPAPEAAGGPSVFLFPPKPKDTLMISRTPEVTCVVVDVSHEDPEVKFNWYVDGVEVHNAKTKPREEQYNSTYRVVSVLTVLHQDWLNGKEYKCKVSNKALPAPIEKTISKAKGQPREPQVYTLPPSREEMTKNQVSLTCLVKGFYPSDIAVEWESNGQPENNYKTTPPVLDSDGSFFLYSKLTVDKSRWQQGNVFSCSVMHEALHNHYTQKSLSLSPG
# B14: A-Ye-04 (Fc fusion)
# chain: QVQLQESGGGLVPPGESLRLSCAASGAIFRINTGAWYRQAPGKQRELVASLTTYGKTTYADFVKGRFTISRDDAKNTVSLQMNSLKPEDTAIYYCHIGPEPRYGYWGQGTQVTVSSTHTCPPCPAPEAAGGPSVFLFPPKPKDTLMISRTPEVTCVVVDVSHEDPEVKFNWYVDGVEVHNAKTKPREEQYNSTYRVVSVLTVLHQDWLNGKEYKCKVSNKALPAPIEKTISKAKGQPREPQVYTLPPSREEMTKNQVSLTCLVKGFYPSDIAVEWESNGQPENNYKTTPPVLDSDGSFFLYSKLTVDKSRWQQGNVFSCSVMHEALHNHYTQKSLSLSPG
# B15: A-Na-18 (Fc fusion)
# chain: QVQLVESGGGLVPPGESLRLSCAASGAIFRINTGAWYRQAPGKQRELVASLTTYGKTTYADFVKGRFTISRDDAENTVSLQMNSLKPEDTAIYYCHIGPEPRYGYWGQGTQVTVSSTHTCPPCPAPEAAGGPSVFLFPPKPKDTLMISRTPEVTCVVVDVSHEDPEVKFNWYVDGVEVHNAKTKPREEQYNSTYRVVSVLTVLHQDWLNGKEYKCKVSNKALPAPIEKTISKAKGQPREPQVYTLPPSREEMTKNQVSLTCLVKGFYPSDIAVEWESNGQPENNYKTTPPVLDSDGSFFLYSKLTVDKSRWQQGNVFSCSVMHEALHNHYTQKSLSLSPG
# Molecular target: T1, 4-1BB antigen (human, UniProt Q07011 24-186, limits assumed)
# T1 construct: also called human 4-1BB antigen; human 4-1BB protein
# Assay: BLI (ForteBio), antibody on AHQ sensor, 100 nM 4-1BB antigen, 1:1 model
# Procedure: ForteBio affinity determination was performed according to the existing method (Estep, P et al., Solution-based measurement of high-throughput antibody-antigen affinity and epitope classification, MAbs, 2013.5(2):p. 270-8). Briefly, the sensor was equilibrated offline for 30 min in the assay buffer, then the baseline was established by detection online for 60 s, and the purified antibody obtained as described above was loaded onto the AHQ sensor online. Then, the sensor was put into 100 nM 4-1BB antigen to act for 5 minutes, and the sensor was transferred to PBS and dissociated for 5 minutes. Analysis of kinetics was performed using a 1:1 binding model.
# T1 sequence (Q07011 24-186 limits assumed): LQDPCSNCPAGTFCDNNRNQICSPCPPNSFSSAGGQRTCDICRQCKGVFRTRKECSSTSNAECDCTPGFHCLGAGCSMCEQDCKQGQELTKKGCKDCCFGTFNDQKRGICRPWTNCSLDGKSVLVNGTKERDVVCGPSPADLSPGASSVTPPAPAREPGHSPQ
row,Binder,Kd [nM]
1,B1,23.2
2,B2,21.6
3,B3,14.3
4,B4,46
5,B5,30.8
6,B6,21
7,B7,44.7
8,B8,20.5
9,B9,11.9
10,B10,25.1
11,B11,28.3
12,B12,20.8
13,B13,15.1
14,B14,222
15,B15,17.5
